Consider 5 proteins from the PETadex activity labels (doi:10.1016/s0021-9258(19)85305-x).

To fix the notation:
B1: unnamed (protein)
chain: MRPPQCLLHTPSLASPLLLLLLWLLGGGVGAEGREDAELLVTVRGGRLRGIRLKTPGGPVSAFLGIPFAEPPMGPRRFLPPEPKQPWSGVVDATTFQSVCYQYVDTLYPGFEGTEMANPNRELSEDCLYLNVWTPYPRPTSPTPVLVWIYGGGFYSGASSLDVYDGRFLVQAERTVLVSMNYRVGAFGFLALPGSREAPGNVGLLDQRLALQWVQENVAAFGGDPTSVTLFGESAGAASVGMHLLSPPSRGLFHRAVLQSGAPNGPWATVGMGEARRRATQLAHLVGCPPGGTGGNDTELVACLRTRPAQVLVNHEWHVLPQESVFRFSFVPVVDGDFLSDTPEALINAGDFHGLQVLVGVVKDEGSYFLVYGAPGFSKDNESLISRAEFLAGVRVGVPQVSDLAAEAVVLHYTDWLHPEDPARLREALSDVVGDHNVVCPVAQLAGRLAAQGARVYAYVFEHRASTLSWPLWMGVPHGYEIEFIFGIPLDPSRNYTAEEKIFAQRLMRYWANFARTGDPNEPRDPKAPQWPPYTAGAQQYVSLDLRPLEVRRGLRAQACAFWNRFLPKLLSATDTLDEAERQWKAEFHRWSSYMVHWKNQFDHYSKQDRCSDL
B2: unnamed (protein)
chain: B1 chain with A117W, F369A
B3: unnamed (protein)
chain: B1 chain with A117W, W317A
B4: unnamed (protein)
chain: B1 chain with A117W
B5: unnamed (protein)
chain: B1 chain with A117W, Y368F

Substitutions are numbered along the chain they refer to.

Substrate in this data set: p-NP-C2
To be noted: pH 8; 27 °C.
With B1, the Km was 3 mM, the kcat came out at 3170 s⁻¹ and the kcat/Km was determined as 1.06e+06 M⁻¹ s⁻¹.
In the case of B2, the Km was 8.6 mM, the kcat is 333 s⁻¹ and the kcat/Km stood at 38800 M⁻¹ s⁻¹.
On to B3, for which the Km came to 4.6 mM, the kcat was found to be 2170 s⁻¹ and the kcat/Km is 471000 M⁻¹ s⁻¹.
With B4, the Km came out at 5.6 mM, the kcat was 1830 s⁻¹ and the kcat/Km came to 327000 M⁻¹ s⁻¹.
On the same counts, the results for B5 are 5.4 mM, 1600 s⁻¹ and 296000 M⁻¹ s⁻¹.

The term Km denotes the substrate concentration at which the rate is half of its maximum. Broadly, the kcat is the maximal rate divided by the concentration of active sites. What is called kcat/Km is the turnover number divided by the Michaelis constant.
